Patent publication US20170037103A1 (University of California, published 2017)
Bridges are numbered along the chain shown (N, C = ends). Where no end group is shown, it is not given here. [ ]: non-standard residue; d: D form. The star is where a group is joined. PalS‑X = 3,5-bis(methyl-S-cysteinyl)-1-(methyl-S-palmityl)-benzene joining the two Cys; Ida^NHPal = iminodiacetic acid mono-N-palmityl amide, CCCCCCCCCCCCCCCCNC(=O)CNCC(=O)*; dPEG12 = 40-amino-4,7,10,13,16,19,22,25,28,31,34,37-dodecaoxotetradecanoic acid; Oic = O=C(O)[C@@H]1C[C@@H]2CCCC[C@@H]2N1; Palmitoyl = CCCCCCCCCCCCCCCC(=O)*; Tic = O=C(O)[C@@H]1Cc2ccccc2CN1; Aib = CC(C)(N)C(=O)O; Ahx = NCCCCCC(=O)O

T1: human neuromedin U receptor NMUR1 (human, UniProt Q9HB89 1-426)
T1 sequence (looked up): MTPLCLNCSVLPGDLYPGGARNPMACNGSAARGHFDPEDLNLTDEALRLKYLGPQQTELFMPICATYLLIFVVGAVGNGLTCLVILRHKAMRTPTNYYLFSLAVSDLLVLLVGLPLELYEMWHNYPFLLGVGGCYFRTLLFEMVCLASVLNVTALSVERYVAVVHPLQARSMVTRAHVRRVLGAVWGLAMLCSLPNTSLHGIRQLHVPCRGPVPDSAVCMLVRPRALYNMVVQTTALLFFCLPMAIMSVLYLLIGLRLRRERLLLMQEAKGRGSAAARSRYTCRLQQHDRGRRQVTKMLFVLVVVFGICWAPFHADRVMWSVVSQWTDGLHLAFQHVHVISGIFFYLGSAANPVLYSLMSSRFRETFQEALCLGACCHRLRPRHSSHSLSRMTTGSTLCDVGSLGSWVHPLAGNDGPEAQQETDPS


Target: T1, human neuromedin U receptor NMUR1
Assay: cell-based or functional assay

Binder | NMUR1 EC50 [nM], calcium mobilization assay [nM]
FRVDEEFQSPFASQSRGYFLFRPRN-NH2 [human neuromedin U] | 1.12
Palmitoyl-[dPEG12][Aib]FLFRPRN-NH2 [NM4] | 1.51
{Ida^NHPal}-[Aib]FLFRPRN-NH2 [NM4A] | 7.41
Ac-FLFRPRN-NH2 [NM1] | 0.58
{Nic-Ida^NHPal}-[Aib]FLFRPRN-NH2 [NM4A-Nic] | 43.6
[Aib]FLFRPRN[Aib]-NH2 (N-terminus assumed; SMILES CC(C)C[C@H](NC(=O)[C@H](Cc1ccccc1)NC(=O)C(C)(C)N)C(=O)N[C@@H](Cc1ccccc1)C(=O)N[C@@H](CCCNC(=N)N)C(=O)N1CCC[C@H]1C(=O)N[C@@H](CCCNC(=N)N)C(=O)N[C@@H](CC(N)=O)C(=O)NC(C)(C)C(N)=O) [NM5] | 58.9
{Palmitoyl-dPEG12}-[Aib]FLFRPRN[Aib]-NH2 [NM7] | 170
C[Ahx]FLFRPRN[Ahx]C-NH2 (cysteine pairing not given here) [NM8] | 186
C[Ahx]FLFR[Oic]RN[Ahx]C-NH2 (cysteine pairing not given here) [NM9] | 1410
C[Ahx]FLFR[Tic]RN[Ahx]C-NH2 (cysteine pairing not given here) [NM10] | 3980
[Aib]FLFRPRN-NH2 (N-terminus assumed; SMILES CC(C)C[C@H](NC(=O)[C@H](Cc1ccccc1)NC(=O)C(C)(C)N)C(=O)N[C@@H](Cc1ccccc1)C(=O)N[C@@H](CCCNC(=N)N)C(=O)N1CCC[C@H]1C(=O)N[C@@H](CCCNC(=N)N)C(=O)N[C@@H](CC(N)=O)C(N)=O) [NM2] | 0.63
C[Ahx]FLFR[Tic]RN[Ahx]C-NH2 (linker 1-11 via PalS‑X) [NM16] | 3980
Palmitoyl-[Aib]FLFRPRN-NH2 (SMILES CCCCCCCCCCCCCCCC(=O)NC(C)(C)C(=O)N[C@@H](Cc1ccccc1)C(=O)N[C@@H](CC(C)C)C(=O)N[C@@H](Cc1ccccc1)C(=O)N[C@@H](CCCNC(=N)N)C(=O)N1CCC[C@H]1C(=O)N[C@@H](CCCNC(=N)N)C(=O)N[C@@H](CC(N)=O)C(N)=O) [NM3] | 331

Target: T2, human neuromedin U receptor NMUR2 (human, UniProt Q9GZQ4 1-415)
T2 construct: whole, on cells; also called neuromedin U 2 receptor; HEK-NMU2
T2 sequence (Q9GZQ4 whole entry): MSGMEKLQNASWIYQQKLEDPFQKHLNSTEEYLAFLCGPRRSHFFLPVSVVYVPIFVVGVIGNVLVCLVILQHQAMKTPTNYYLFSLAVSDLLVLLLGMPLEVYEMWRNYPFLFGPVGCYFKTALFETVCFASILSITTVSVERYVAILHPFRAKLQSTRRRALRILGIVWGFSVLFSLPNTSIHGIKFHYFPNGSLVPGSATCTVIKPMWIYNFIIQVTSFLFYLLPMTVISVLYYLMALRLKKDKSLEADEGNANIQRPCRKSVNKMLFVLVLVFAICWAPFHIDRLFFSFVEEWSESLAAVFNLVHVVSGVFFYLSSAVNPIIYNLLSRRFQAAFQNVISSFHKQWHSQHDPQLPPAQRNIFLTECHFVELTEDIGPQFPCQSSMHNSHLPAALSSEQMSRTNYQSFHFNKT
Assay: told from the calcium mobilization assay on HEK293 cells expressing the receptor; no direct binding assay
Protocol: To test whether neuromedin U can be modified/derivatized to yield truncated bioactive compound(s) that may be useful as therapeutics, we synthesized a small library (25 peptides) of hNMU analogs utilizing various stabilization protocols, including: cyclization, lipidation, introduction of α,α-disubstituted and N-methylated amino acids, retro-inverso-approach, and combination of such (see Table 1). Subsequently all analogues were tested against human neuromedin U receptors (NMUR1 and NMUR2) in calcium mobilization assay (collaboration with Dr Gary Willars, University of Leicester, UK).
HEK293 cells expressing either the neuromedin U 1 receptor or neuromedin U 2 receptor (HEK-NMU1 and HEK-NMU2 respectively) were grown to approximately 90% confluence in ELISA strip plates (96-well format) pre-coated with poly-D-lysine (0.1% w/v) and loaded for 45 min at 37° C. with 2 iM fluo-4-AM in Krebs'-HEPES buffer with bovine serum albumin (KHB-BSA; composition: 10 mM HEPES; 4.2 mM NaHCO₃; 11.7 mM D-glucose; 1.18 mM MgSO₄.7H₂O; 1.18 mM KH₂PO₄; 4.69 mM KCl; 118 mM NaCl; 1.3 mM CaCl₂.2H₂O; 0.1% (w/v) BSA; pH 7.4). Monolayers were then washed and equilibrated for 5 min at 37° C. in 100 il KHB-BSA for subsequent recording of fluorescence as an index of intracellular [Ca²⁺] ([Ca²⁺]ᵢ) using a microplate reader (NOVOstar; BMG LABTECH, Aylesbury, U.K.). […]

Binder | binding result
Palmitoyl-[dPEG12][Aib]FLFRPRN-NH2 [NM4] | binds
